# Laboratory results as given in patent publication US20250283063, “NOVEL CRISPR-CAS12I SYSTEMS AND USES THEREOF” (HUIDAGENE THERAPEUTICS (SINGAPORE) PTE. LTD., published 2025).
# T1: Cas12Max (xCas12i-N243R, v1.1) (N243R)
# T1 chain: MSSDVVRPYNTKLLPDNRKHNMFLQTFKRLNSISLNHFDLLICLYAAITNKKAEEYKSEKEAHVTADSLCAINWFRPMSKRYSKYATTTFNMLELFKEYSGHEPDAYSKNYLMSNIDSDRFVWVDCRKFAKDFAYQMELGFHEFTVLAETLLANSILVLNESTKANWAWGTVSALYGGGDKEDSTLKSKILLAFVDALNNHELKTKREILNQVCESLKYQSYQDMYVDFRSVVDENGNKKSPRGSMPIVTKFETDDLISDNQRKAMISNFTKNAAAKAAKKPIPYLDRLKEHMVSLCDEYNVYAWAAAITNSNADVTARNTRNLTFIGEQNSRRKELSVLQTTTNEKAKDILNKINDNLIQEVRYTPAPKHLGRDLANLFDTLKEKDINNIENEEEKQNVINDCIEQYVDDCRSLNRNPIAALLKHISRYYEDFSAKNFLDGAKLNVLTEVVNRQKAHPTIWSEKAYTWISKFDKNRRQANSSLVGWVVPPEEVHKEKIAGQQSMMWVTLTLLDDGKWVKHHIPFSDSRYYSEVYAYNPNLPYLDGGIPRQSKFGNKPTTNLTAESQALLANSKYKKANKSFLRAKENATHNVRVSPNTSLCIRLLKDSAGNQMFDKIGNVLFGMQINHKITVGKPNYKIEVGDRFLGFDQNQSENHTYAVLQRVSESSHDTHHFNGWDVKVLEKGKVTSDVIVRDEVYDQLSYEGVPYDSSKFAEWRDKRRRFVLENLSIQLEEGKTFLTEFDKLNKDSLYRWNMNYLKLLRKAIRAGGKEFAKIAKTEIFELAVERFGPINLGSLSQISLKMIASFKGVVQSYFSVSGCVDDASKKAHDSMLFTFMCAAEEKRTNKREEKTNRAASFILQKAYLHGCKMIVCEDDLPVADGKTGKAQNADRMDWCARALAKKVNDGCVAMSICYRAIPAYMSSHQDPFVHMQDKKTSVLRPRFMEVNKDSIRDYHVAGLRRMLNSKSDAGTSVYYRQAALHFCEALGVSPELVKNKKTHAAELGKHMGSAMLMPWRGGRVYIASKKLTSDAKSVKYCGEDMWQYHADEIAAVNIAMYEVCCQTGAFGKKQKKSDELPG
# T2: xCas12i v5.3 (N243R,D892R)
# T2 chain: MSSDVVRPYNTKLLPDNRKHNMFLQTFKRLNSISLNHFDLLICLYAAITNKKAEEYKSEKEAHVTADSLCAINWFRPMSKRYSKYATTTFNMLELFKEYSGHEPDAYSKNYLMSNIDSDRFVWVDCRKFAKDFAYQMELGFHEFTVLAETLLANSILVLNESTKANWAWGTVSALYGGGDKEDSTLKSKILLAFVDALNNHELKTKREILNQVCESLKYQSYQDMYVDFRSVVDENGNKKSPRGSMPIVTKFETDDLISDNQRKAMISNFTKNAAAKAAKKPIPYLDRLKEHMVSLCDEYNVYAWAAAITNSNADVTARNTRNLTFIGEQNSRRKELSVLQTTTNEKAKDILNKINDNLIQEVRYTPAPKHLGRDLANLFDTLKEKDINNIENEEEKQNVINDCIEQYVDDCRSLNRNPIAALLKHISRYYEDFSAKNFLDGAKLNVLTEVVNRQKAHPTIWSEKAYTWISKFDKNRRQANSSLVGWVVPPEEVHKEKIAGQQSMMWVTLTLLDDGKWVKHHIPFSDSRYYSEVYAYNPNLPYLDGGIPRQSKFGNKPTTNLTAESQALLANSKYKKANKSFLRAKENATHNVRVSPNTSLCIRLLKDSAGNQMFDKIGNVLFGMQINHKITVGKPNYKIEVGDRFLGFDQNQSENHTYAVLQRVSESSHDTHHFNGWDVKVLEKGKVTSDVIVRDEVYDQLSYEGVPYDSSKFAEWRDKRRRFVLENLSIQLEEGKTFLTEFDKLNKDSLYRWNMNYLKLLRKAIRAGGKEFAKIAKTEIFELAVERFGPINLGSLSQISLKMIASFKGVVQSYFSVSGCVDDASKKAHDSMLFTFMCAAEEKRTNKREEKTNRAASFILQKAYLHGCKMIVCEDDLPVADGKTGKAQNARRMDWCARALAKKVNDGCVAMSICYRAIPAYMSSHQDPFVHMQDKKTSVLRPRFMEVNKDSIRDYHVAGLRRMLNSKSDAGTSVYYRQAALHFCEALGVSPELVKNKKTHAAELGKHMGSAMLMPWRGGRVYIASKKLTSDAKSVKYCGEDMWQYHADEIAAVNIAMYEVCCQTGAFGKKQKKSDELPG
# Legend:
# [1] = biological target: T1, Cas12Max (xCas12i-N243R, v1.1); assay: cell_activity; PAM TTTG; OT-1; conditions: tags: NLS
# Method: (§1) HEK293T cells were cultured in 24-well tissue culture plates according to standard methods for 12 hours, before the reporter and expression plasmids were co-transfected into the cells using standard polyethyleneimine (PEI) transfection. The transfected cells were then cultured at 37° C. under 5% CO₂ for 48 hours. Then the cultured cells were analyzed by flow cytometry for BFP, EGFP, and mCherry fluorescent signals. A “blank” control group was also set up, where only the reporter plasmid was transfected, and no expression plasmid was introduced.
# (§2) A dual plasmid fluorescent reporter system for evaluation of off-target dsDNA cleavage activity (off-target reporter system; referring to “Off-Target Reporter” in FIG. 1B) was established, which was similar to the dual plasmid fluorescent reporter system in Example 6 for evaluation of (on-target) dsDNA cleavage activity, except that the insertion sequence of the EGxxxxFP coding sequence contains an TTR off-target protospacer sequence (one of SEQ ID NOs: 127-129) containing one or more mismatches (bold, underlined) with a TTR-targeting spacer sequence (SEQ ID NO: 130) in the gRNA, rather than containing a TTR on-target protospacer sequence (SEQ ID NO: 130; which is the same as SEQ ID NO: 107 in Example 5); DR-T1 sequence (SEQ ID NO: 451) was used. To save drafting, the on-target protospacer sequence/spacer sequence in Table 7 refer to both the protospacer sequence (a DNA sequence) and the corresponding spacer sequence (an RNA sequence) with any “T” in the sequence when referring to a protospacer sequences standing for “T” and when referring to a such spacer sequence standing for “U”, although the assigned SEQ ID NO: 130 in the sequence listing is annotated as DNA.
# xCas12i v5.3 = biological target: T2, xCas12i v5.3; assay: cell_activity; PAM TTTG; OT-1; conditions: tags: NLS
# Method: as §1, §2
binder,measurement,setting,value
TTR.2 crRNA ; TTR OT.1 (ssRNA ; dsDNA) RNA: AUGACUCAGAAAUGUGUCCCCAGUUGACACUAGAAGGGAUAUACAAAGUGGA DNA 1: TTTGTAGAAGGGATATAGAAAGTATC DNA 2: GATACTTTCTATATCCCTTCTACAAA,activity,[1],60.2%
same,activity,xCas12i v5.3,6.66%
